± gives the uncertainty stated by the source.
Test: protein stability index of a GFP-peptide fusion (yeast GPS) (PSI 1-4); higher = more stable; sorted into four equal gates, so the index is relative within each strain
Summary of the method: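 Tiled 17-residue peptides from yeast proteins were fused downstream of GFP on a plasmid that also expresses Cherry, and the pooled library was carried in yeast. Mid-log cultures grown in leucine-free medium were sorted into four equal gates by GFP/Cherry fluorescence ratio. Plasmids from each gate were PCR-amplified and Illumina-sequenced, and reads were assigned to strains by barcodes. Each peptide's protein stability index is the sum, over gates, of the gate's read frequency multiplied by its gate number.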

| Sequence | protein stability index (pdr5∆) | protein stability index (san1∆) | protein stability index (ubr1∆) | protein stability index (doa10∆) |
| --- | --- | --- | --- | --- |
| ILKLLNGFMESAIVNED [SOH1] | 3.27 ± 0.18 | 3.41 ± 0.17 | 3.57 ± 0.22 |  |
| ELKPVSLDNKTLDDLVT [YJL041W/NSP1] | 3.04 ± 0.063 | 3.09 ± 0.067 | 3.19 ± 0.042 | 3.12 ± 0.057 |
| KREGKTRLLNIVMQLRK [ISW2] | 3.02 ± 0.063 | 3.11 ± 0.054 | 2.97 ± 0.057 | 2.7 ± 0.078 |
| SDLLVAPPLENENSNCL [YML103C/NUP188] | 3.28 ± 0.1 | 3.25 ± 0.14 | 3.18 ± 0.11 | 3 ± 0.095 |
| LGLKLACLGNDGILRLY [YGL100W/SEH1] | 1.75 ± 0.05 | 1.86 ± 0.057 | 1.72 ± 0.034 | 1.78 ± 0.056 |
| KNVNIEDITEPKPDKPS [ESC2] | 3.1 ± 0.099 | 2.51 ± 0.1 | 2.94 ± 0.13 | 2.96 ± 0.094 |
| RNEVLESMDFLVLADAF [YCS4] | 2.31 ± 0.086 | 2.43 ± 0.092 | 2.72 ± 0.048 | 2.04 ± 0.048 |
| DTKNSKSESPSEVLVDT [ISW2] | 3.12 ± 0.07 | 2.97 ± 0.082 | 3.27 ± 0.063 | 3.11 ± 0.082 |
| LSIKNSFIINFISNLPN [NUT1] | 1.81 ± 0.05 | 1.87 ± 0.1 | 1.79 ± 0.04 | 1.92 ± 0.07 |
| VSSESSDEAIIPVNKRR [SIR3] | 2.98 ± 0.12 | 3.02 ± 0.1 | 3.22 ± 0.082 | 3.31 ± 0.15 |
| GGDSDANGTFMDFGVDP [RPN10] |  | 3.23 ± 0.13 | 2.96 ± 0.25 |  |
| QRQLLVQQQQQQQLRNQ [SNF5] | 2.54 ± 0.11 | 2.44 ± 0.19 | 2.6 ± 0.1 | 2.2 ± 0.071 |
| MTVNDQPIEKNGDKMPL [YJR042W/NUP85] | 3.04 ± 0.068 | 2.45 ± 0.086 | 3.1 ± 0.042 | 2.73 ± 0.066 |
| SFLEGSKALNSILESSM [RGR1] | 1.59 ± 0.1 | 3.09 ± 0.21 | 2.02 ± 0.13 | 1.81 ± 0.19 |
| TKNDAGSKQILKTEAAN [BRR2] | 2.95 ± 0.054 | 2.93 ± 0.039 | 3.04 ± 0.055 | 2.85 ± 0.055 |
| CHDELKALPMLEQVEFE [MED4] | 3.12 ± 0.3 | 2.7 ± 0.21 | 3.29 ± 0.12 | 3.17 ± 0.14 |
| TRSHFNALYDTLLESNL [RPN6] | 2.49 ± 0.057 | 2.65 ± 0.047 | 2.69 ± 0.042 | 2.3 ± 0.05 |
| LKRFPKMSVTCNAQPIT [BRR2] | 2.23 ± 0.06 | 2.02 ± 0.11 | 1.9 ± 0.037 | 2.33 ± 0.066 |
| YEAYPNTSLPPSILEDS [FAS1] | 2.4 ± 0.03 | 2.25 ± 0.037 | 2.4 ± 0.027 | 2.15 ± 0.033 |
| RQDGSYTYHSTNKDNKA [ARP9] | 2.97 ± 0.067 | 2.88 ± 0.044 | 2.64 ± 0.056 | 2.67 ± 0.062 |

| Sequence | protein stability index (pdr5∆) | protein stability index (san1∆) | protein stability index (ubr1∆) | protein stability index (doa10∆) |
| --- | --- | --- | --- | --- |
| PQGFSSVERGRKRAHSL [REC8] | 3.4 ± 0.12 | 3.36 ± 0.048 | 3.19 ± 0.067 | 3.38 ± 0.11 |
| QVYDLLKRFPKMSVTCN [BRR2] | 1.09 ± 0.13 |  |  |  |
| VFYQVTPEDADEEEDDE [RPL22B] | 2.33 ± 0.068 | 2.63 ± 0.057 | 1.99 ± 0.071 | 1.84 ± 0.057 |
| CELLKLTNEDPPGLMYL [SSN2] | 3.06 ± 0.19 | 3.26 ± 0.12 | 3.36 ± 0.11 | 2.85 ± 0.18 |
| KAEKKVELHGKRKLDIG [PRP8] | 2.8 ± 0.17 | 3.13 ± 0.16 |  |  |
| PGDVLDKDAFIPKLKPA [SNU114] | 1.5 ± 0.098 | 1.2 ± 0.18 | 1.71 ± 0.12 | 1.89 ± 0.094 |
| AEKLVPLPICHANSVVA [YML031W/NDC1] | 1.34 ± 0.091 | 1.61 ± 0.2 | 1.42 ± 0.16 | 1.68 ± 0.2 |
| SYLISHKDSFYDRATLT [RPO31] | 2.6 ± 0.067 | 2.21 ± 0.065 | 2.35 ± 0.072 | 2.43 ± 0.073 |
| SQVVWIRRLRVLRRLLA [RPL19A] | 1.46 ± 0.049 | 1.44 ± 0.12 | 1.29 ± 0.053 | 1.22 ± 0.054 |
| NHPELQGITRNVVNYLS [RPC17] | 1.83 ± 0.061 | 2.19 ± 0.11 | 2.47 ± 0.062 | 2.02 ± 0.062 |
| LSKVFSDVLFEFTKINT [YJL039C/NUP192] | 2.5 ± 0.068 | 2.09 ± 0.13 | 2.94 ± 0.051 | 2.87 ± 0.11 |
| VGKYDKAIELLEKALQG [SRP72] | 1.66 ± 0.17 |  | 1.18 ± 0.22 |  |
| LIQEHDSRKNREQSSND [BRN1] | 3.38 ± 0.06 | 3.19 ± 0.081 | 3.45 ± 0.094 | 3.38 ± 0.078 |
| HESTSRTDQYTIDNIDS [YMR129W/POM152] | 2.9 ± 0.053 | 2.9 ± 0.045 | 2.86 ± 0.045 | 2.84 ± 0.053 |
| MMQDPQMQQMAKQFGMG [SRP54] | 2.93 ± 0.043 | 3.03 ± 0.031 | 2.75 ± 0.027 | 3.15 ± 0.039 |
| LKNKNFKCQEKDKGVYV [SIR2] | 3.03 ± 0.093 | 3.38 ± 0.077 | 3.27 ± 0.17 | 3.53 ± 0.22 |
| SQTPSFNTNSSFTPSTV [YOR098C/NUP1] | 2.671 ± 0.025 | 2.52 ± 0.033 | 2.898 ± 0.026 | 2.4 ± 0.033 |
| QDRDRFFLRDTLLWNKN [SNF5] | 3.08 ± 0.052 | 2.83 ± 0.046 | 3 ± 0.039 | 2.99 ± 0.056 |
| KVQISKIPILAQHESFL [RPN9] | 2.05 ± 0.045 | 2.16 ± 0.075 | 2.41 ± 0.037 | 1.97 ± 0.06 |

Reference: the supplement of paper PMC9732359
